Test [1] concerns the target T1, amyloid plaques in human AD brain tissue (human, UniProt P05067 674-713).
T1 construct: Target presented in tissue sections; also called plaques in AD brain tissue
Nature of the test: immunostaining of unfixed human AD cortex sections with biotinylated antibody, % area covered, 6 donors fitted together.

Another test has as its target human Aβ 1-40 fibrils (human). In words: direct binding ELISA.
A further test addresses T2, Mouse/Rat Aβ 1-40 (mouse/rat).
T2 construct: also called Aβ1-40 from rat and mouse
T2 peptide: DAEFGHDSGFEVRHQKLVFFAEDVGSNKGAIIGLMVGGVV
In words: direct binding ELISA. For orientation: An ELISA detects its analyte on a solid surface through an enzyme-linked reagent.

The target of another test is T3, pEG7 Pyr …-Biotin (human).
T3 peptide: [pGlu]FRHGSGYEVHHQK-{Biotin′}
In words: direct binding ELISA, peptide coated 100 ng/well, average ± SD of three experiments. Here is the method:
(§1) Recombinant human Aβ biotinylated peptides were diluted in distilled water. Aβ peptides were diluted to a working concentration of 2 μg/mL, and 50 μL per well (100 ng/well) was added to 96-well half area high-binding ELISA plates. The plates were incubated overnight at 4° C. shaking at 100 rpm. Following coating, the plates were washed four times with 190 µL/well of 1×PBS using an automated plate washer. The plates were blocked with 190 µL/well of 2% BSA in DPBS and incubated for 1 hr. at RT. Reagents for ELISA were diluted in 0.25% BSA in DPBS.
(§2) After incubation for blocking, plates were washed four times with 190 μL/well of 1×PBS using automated plate washer. […] The plates were incubated for 30 min at RT. After four washes with PBS, 50 μL of TMB substrate was added into each well, and the plates were incubated at RT for about 5-10 min until color developed. The reaction was stopped by adding 50 μL per well of 2N sulfuric acid. Plates were read on a ClarioStar plate reader to obtain the absorbance at 450 nm (OD₄₅₀). […] Three independent experiments were performed.

Test [2] concerns the target T4, E3-16-EFRHDSGYEVHHQK-Biotin (human).
T4 construct: N-terminal glutamate is not pyroglutamated
T4 peptide: EFRHDSGYEVHHQK-{Biotin′}
The description is as above. Here is the method:
as §1, §2

For a further test, the target named is T5, pEG8 Pyr …-Biotin (human).
T5 peptide: [pGlu]FRHDGGYEVHHQK-{Biotin′}
Described as above. Here is the method:
as §1, §2

For a further test, the target named is T6, pEF10 Pyr …-Biotin (human).
T6 peptide: [pGlu]FRHDSGGEVHHQK-{Biotin′}
The description is as above. As for the experimental part: as §1, §2

A further test deals with T7, pEG6 Pyr …-Biotin (human).
T7 peptide: [pGlu]FRGDSGYEVHHQK-{Biotin′}
Described as above. Here is the method:
as §1, §2

For a further test, the target named is T8, pE3-16 Pyr-…-Biotin (human).
T8 peptide: [pGlu]FRHDSGYEVHHQK-{Biotin′}
The description is as above. Here is the method:
as §1, §2

In test [3] the target is T1, amyloid plaques in human AD brain tissue. In words: immunostaining of unfixed human AD cortex sections, % area covered, 6 donors fitted together.

Data on two molecules can be found in patent US20250101087A1 (AbbVie / Abbott, published 2025).

Square brackets hold non-standard residues; d marks the D form. Primed or numbered codes have the meaning given here. Ends that are not written are not given here. pGlu = O=C1CC[C@@H](C(=O)O)N1; Biotin′ = not defined here

T1 sequence (P05067 674-713): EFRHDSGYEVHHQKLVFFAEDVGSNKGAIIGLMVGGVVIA

B1: AC-264713, hu Aβ (AC-264713) [hu IgG1/K] (antibody, V domains shown)
VH: EVQLQESGPGLVKPSQTLSLTCTFSGFSLSTSGMGVSWIRQPPGKGLEWLAHIYWDDDKRYNPYMKRRLTISKDTSKNQVSLKISSVTAADTAVYYCARRADDYDVGFAYWGQGTLVTVSS
VL: DIQMTQSPSSVSASVGDRVTITCLASQTIGTWLAWYQQKPGKSPKLLIYAATSLADGVPSRFSGSGSGTDFTLTISSLQPEDFATYYCQQLYSSPFTFGQGTKLEIKR
notes: It is the only humanized antibody described
Regarding B1, the EC50 (commonly the concentration giving half of the maximal effect) amounted to 0.4 mg/L in [1]; 0.4 nM with pEG7 Pyr …-Biotin; 0.9 nM in test [2]; 0.4 nM with pEG8 Pyr …-Biotin; 0.5 nM with pEF10 Pyr …-Biotin; 0.5 nM in the test with pEG6 Pyr …-Biotin. For the same molecule, a half-maximal response in the test with pE3-16 Pyr-…-Biotin (EC50) required 0.3 nM. The binding result in the test with human Aβ 1-40 fibrils and in the test with Mouse/Rat Aβ 1-40 was “no binding” each time.

B2: Comparator Ab1 (antibody, human IgG1, kappa, V domains shown)
VH: QVQLVQSGAEVKKPGSSVKVSCKASGYDFTRYYINWVRQAPGQGLEWMGWINPGSGNTKYNEKFKGRVTITADESTSTAYMELSSLRSEDTAVYYCAREGITVYWGQGTTVTVSS
VL: DIVMTQTPLSLSVTPGQPASISCKSSQSLLYSRGKTYLNWLLQKPGQSPQLLIYAVSKLDSGVPDRFSGSGSGTDFTLKISRVEAEDVGVYYCVQGTHYPFTFGQGTKLEIKR
notes: Detected with anti-human IgG in the in vivo study; also called comparator antibody Ab1
B2 had an EC50 in [3] of 12 mg/L.
